This test addresses T1, human TNFR2 (human, UniProt P20333 23-461).
T1 construct: expressed on the surface of CHO cells; also called HuTNFR2; TNFRSF1B
T1 sequence: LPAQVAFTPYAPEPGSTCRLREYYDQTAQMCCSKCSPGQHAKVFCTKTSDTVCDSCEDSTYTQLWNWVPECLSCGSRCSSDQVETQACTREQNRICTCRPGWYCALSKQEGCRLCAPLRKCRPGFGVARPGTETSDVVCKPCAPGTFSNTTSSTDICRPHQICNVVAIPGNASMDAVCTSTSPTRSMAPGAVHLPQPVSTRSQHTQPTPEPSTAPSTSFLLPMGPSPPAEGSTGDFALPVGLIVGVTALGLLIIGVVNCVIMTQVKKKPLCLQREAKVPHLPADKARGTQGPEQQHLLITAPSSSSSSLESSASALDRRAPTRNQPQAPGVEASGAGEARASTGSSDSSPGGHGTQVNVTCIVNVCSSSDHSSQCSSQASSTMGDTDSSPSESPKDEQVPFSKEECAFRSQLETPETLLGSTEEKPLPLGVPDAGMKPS
Kind of test: binding to human TNFR2 CHO cells.

B1: IgG 1971 (antibody, name in Kabat numbering, V domains shown)
VH: QVQLVQSGAEVKKPGASVKVSCKVSGFSFPSSGVDWVRQAPGQGLEWLGVTHGSGSTHYNQKFQGRVTITKDTSKSTVYMELSSLRSEDTAVYYCASGERDEGFVYWGQGTLVTVSS
VL: DIQLTQSPSFLSASVGDRVTITCKASQNVGTAVAWYQQKPGKAPKLLIYAASTLQSGVPSRFSGSGSGTEFTLTISSLQPEDFATYYCQQYSSYPLTFGGGTKVEIKR
notes: IgG
Take B1: the binding result is “no binding”.

B2: IgG 2035 (antibody, name in Kabat numbering, V domains shown)
VH: QVQLVQSGAEVKKPGASVKVSCKVSGFSFPSSGVDWVRQAPGQGLEWLGVTKGQGSTHYNQKFQGRVTITKDTSKSTVYMELSSLRSEDTAVYYCASGERDEGFVYWGQGTLVTVSS
VL: DIQLTQSPSFLSASVGDRVTITCKASQNVGTAVAWYQQKPGKAPKLLIYAASTLQSGVPSRFSGSGSGTEFTLTISSLQPEDFATYYCLQYSSYPLTFGGGTKVEIKR
notes: IgG
Turning to B2, the binding result is reported as “no binding”.

B3: IgG 2017 (antibody, name in Kabat numbering, V domains shown)
VH: QVQLVQSGAEVKKPGASVKVSCKVSGFSFPSSGVDWVRQAPGQGLEWLGVTRGEGSTHYNQKFQGRVTITKDTSKSTVYMELSSLRSEDTAVYYCASGESTEGFVYWGQGTLVTVSS
VL: DIQLTQSPSFLSASVGDRVTITCKASQNVGTAVAWYQQKPGKAPKLLIYAASTLQSGVPSRFSGSGSGTEFTLTISSLQPEDFATYYCLQKSSYPLTFGGGTKVEIKR
notes: IgG
Take B3: the binding result was “no binding”.

B4: IgG 2022 (antibody, name in Kabat numbering, V domains shown)
VH: QVQLVQSGAEVKKPGASVKVSCKVSGFSFPSSGVDWVRQAPGQGLEWLGVTFQEGSTHYNQKFQGRVTITKDTSKSTVYMELSSLRSEDTAVYYCASGEHDEGFVYWGQGTLVTVSS
VL: DIQLTQSPSFLSASVGDRVTITCKASQNVGTAVAWYQQKPGKAPKLLIYAASTLQSGVPSRFSGSGSGTEFTLTISSLQPEDFATYYCLQKSSYPLTFGGGTKVEIKR
notes: IgG
As for B4, the binding result is reported as “no binding”.

B5: IgG 2036 (antibody, name in Kabat numbering, V domains shown)
VH: QVQLVQSGAEVKKPGASVKVSCKVSGFSFPSSGVDWVRQAPGQGLEWLGVTKGQGSTHYNQKFQGRVTITKDTSKSTVYMELSSLRSEDTAVYYCASGEQDEGFVYWGQGTLVTVSS
VL: DIQLTQSPSFLSASVGDRVTITCKASQNVGTAVAWYQQKPGKAPKLLIYAASTLQSGVPSRFSGSGSGTEFTLTISSLQPEDFATYYCLQYSSYPLTFGGGTKVEIKR
notes: IgG
Consider B5, for which the binding result is “no binding”.

B6: IgG 2021 (antibody, name in Kabat numbering, V domains shown)
VH: QVQLVQSGAEVKKPGASVKVSCKVSGFSFPSSGVDWVRQAPGQGLEWLGVTFQEGSTHYNQKFQGRVTITKDTSKSTVYMELSSLRSEDTAVYYCASGESTEGFVYWGQGTLVTVSS
VL: DIQLTQSPSFLSASVGDRVTITCKASQNVGTAVAWYQQKPGKAPKLLIYAASTLQSGVPSRFSGSGSGTEFTLTISSLQPEDFATYYCLQKSSYPLTFGGGTKVEIKR
notes: IgG
For the molecule B6, the binding result is recorded as “no binding”.

B7: IgG 2032 (antibody, name in Kabat numbering, V domains shown)
VH: QVQLVQSGAEVKKPGASVKVSCKVSGFSFPSSGVDWVRQAPGQGLEWLGVTHGSGSTHYNQKFQGRVTITKDTSKSTVYMELSSLRSEDTAVYYCASGEQDEGFVYWGQGTLVTVSS
VL: DIQLTQSPSFLSASVGDRVTITCKASQNVGTAVAWYQQKPGKAPKLLIYAASTLQSGVPSRFSGSGSGTEFTLTISSLQPEDFATYYCLQKSSYPLTFGGGTKVEIKR
notes: IgG
As to B7, the binding result is on record as “no binding”.

B8: IgG 2034 (antibody, name in Kabat numbering, V domains shown)
VH: QVQLVQSGAEVKKPGASVKVSCKVSGFSFPSSGVDWVRQAPGQGLEWLGVTKGQGSTHYNQKFQGRVTITKDTSKSTVYMELSSLRSEDTAVYYCASGEHDEGFVYWGQGTLVTVSS
VL: DIQLTQSPSFLSASVGDRVTITCKASQNVGTAVAWYQQKPGKAPKLLIYAASTLQSGVPSRFSGSGSGTEFTLTISSLQPEDFATYYCLQYSSYPLTFGGGTKVEIKR
notes: IgG
With B8, the binding result is on record as “no binding”.

B9: IgG 2033 (antibody, name in Kabat numbering, V domains shown)
VH: QVQLVQSGAEVKKPGASVKVSCKVSGFSFPSSGVDWVRQAPGQGLEWLGVTKGQGSTHYNQKFQGRVTITKDTSKSTVYMELSSLRSEDTAVYYCASGESTEGFVYWGQGTLVTVSS
VL: DIQLTQSPSFLSASVGDRVTITCKASQNVGTAVAWYQQKPGKAPKLLIYAASTLQSGVPSRFSGSGSGTEFTLTISSLQPEDFATYYCLQYSSYPLTFGGGTKVEIKR
notes: IgG
As to B9, the binding result is listed as “no binding”.

B10: IgG 2019 (antibody, name in Kabat numbering, V domains shown)
VH: QVQLVQSGAEVKKPGASVKVSCKVSGFSFPSSGVDWVRQAPGQGLEWLGVTRGEGSTHYNQKFQGRVTITKDTSKSTVYMELSSLRSEDTAVYYCASGERDEGFVYWGQGTLVTVSS
VL: DIQLTQSPSFLSASVGDRVTITCKASQNVGTAVAWYQQKPGKAPKLLIYAASTLQSGVPSRFSGSGSGTEFTLTISSLQPEDFATYYCLQKSSYPLTFGGGTKVEIKR
notes: IgG
With B10, the binding result is “no binding”.

B11: IgG 2013 (antibody, name in Kabat numbering, V domains shown)
VH: QVQLVQSGAEVKKPGASVKVSCKVSGFSFPSSGVDWVRQAPGQGLEWLGVTKGQGSTHYNQKFQGRVTITKDTSKSTVYMELSSLRSEDTAVYYCASGESTEGFVYWGQGTLVTVSS
VL: DIQLTQSPSFLSASVGDRVTITCKASQNVGTAVAWYQQKPGKAPKLLIYAASTLQSGVPSRFSGSGSGTEFTLTISSLQPEDFATYYCLQKSSYPLTFGGGTKVEIKR
notes: IgG
For the molecule B11, the binding result was “no binding”.

B12: IgG 2016 (antibody, name in Kabat numbering, V domains shown)
VH: QVQLVQSGAEVKKPGASVKVSCKVSGFSFPSSGVDWVRQAPGQGLEWLGVTKGQGSTHYNQKFQGRVTITKDTSKSTVYMELSSLRSEDTAVYYCASGEQDEGFVYWGQGTLVTVSS
VL: DIQLTQSPSFLSASVGDRVTITCKASQNVGTAVAWYQQKPGKAPKLLIYAASTLQSGVPSRFSGSGSGTEFTLTISSLQPEDFATYYCLQKSSYPLTFGGGTKVEIKR
notes: IgG
For B12, the binding result is “no binding”.

B13: IgG 1972 (antibody, name in Kabat numbering, V domains shown)
VH: QVQLVQSGAEVKKPGASVKVSCKVSGFSFPSSGVDWVRQAPGQGLEWLGVTHGSGSTHYNQKFQGRVTITKDTSKSTVYMELSSLRSEDTAVYYCASGEQDEGFVYWGQGTLVTVSS
VL: DIQLTQSPSFLSASVGDRVTITCKASQNVGTAVAWYQQKPGKAPKLLIYAASTLQSGVPSRFSGSGSGTEFTLTISSLQPEDFATYYCQQYSSYPLTFGGGTKVEIKR
notes: IgG
Consider B13, for which the binding result is given as “no binding”.

B14: IgG 2023 (antibody, name in Kabat numbering, V domains shown)
VH: QVQLVQSGAEVKKPGASVKVSCKVSGFSFPSSGVDWVRQAPGQGLEWLGVTFQEGSTHYNQKFQGRVTITKDTSKSTVYMELSSLRSEDTAVYYCASGERDEGFVYWGQGTLVTVSS
VL: DIQLTQSPSFLSASVGDRVTITCKASQNVGTAVAWYQQKPGKAPKLLIYAASTLQSGVPSRFSGSGSGTEFTLTISSLQPEDFATYYCLQKSSYPLTFGGGTKVEIKR
notes: IgG
As for B14, the binding result was “no binding”.

B15: IgG 2015 (antibody, name in Kabat numbering, V domains shown)
VH: QVQLVQSGAEVKKPGASVKVSCKVSGFSFPSSGVDWVRQAPGQGLEWLGVTKGQGSTHYNQKFQGRVTITKDTSKSTVYMELSSLRSEDTAVYYCASGERDEGFVYWGQGTLVTVSS
VL: DIQLTQSPSFLSASVGDRVTITCKASQNVGTAVAWYQQKPGKAPKLLIYAASTLQSGVPSRFSGSGSGTEFTLTISSLQPEDFATYYCLQKSSYPLTFGGGTKVEIKR
notes: IgG
B15: the binding result is “no binding”.

B16: IgG 2025 (antibody, name in Kabat numbering, V domains shown)
VH: QVQLVQSGAEVKKPGASVKVSCKVSGFSFPSSGVDWVRQAPGQGLEWLGVTLGHGSTHYNQKFQGRVTITKDTSKSTVYMELSSLRSEDTAVYYCASGESTEGFVYWGQGTLVTVSS
VL: DIQLTQSPSFLSASVGDRVTITCKASQNVGTAVAWYQQKPGKAPKLLIYAASTLQSGVPSRFSGSGSGTEFTLTISSLQPEDFATYYCLQKSSYPLTFGGGTKVEIKR
notes: IgG
In the case of B16, the binding result is “no binding”.

B17: IgG 2037 (antibody, name in Kabat numbering, V domains shown)
VH: QVQLVQSGAEVKKPGASVKVSCKVSGFSFPSSGVDWVRQAPGQGLEWLGVTRGEGSTHYNQKFQGRVTITKDTSKSTVYMELSSLRSEDTAVYYCASGESTEGFVYWGQGTLVTVSS
VL: DIQLTQSPSFLSASVGDRVTITCKASQNVGTAVAWYQQKPGKAPKLLIYAASTLQSGVPSRFSGSGSGTEFTLTISSLQPEDFATYYCLQYSSYPLTFGGGTKVEIKR
notes: IgG
B17: the binding result is recorded as “no binding”.

B18: IgG 2026 (antibody, name in Kabat numbering, V domains shown)
VH: QVQLVQSGAEVKKPGASVKVSCKVSGFSFPSSGVDWVRQAPGQGLEWLGVTLGHGSTHYNQKFQGRVTITKDTSKSTVYMELSSLRSEDTAVYYCASGEHDEGFVYWGQGTLVTVSS
VL: DIQLTQSPSFLSASVGDRVTITCKASQNVGTAVAWYQQKPGKAPKLLIYAASTLQSGVPSRFSGSGSGTEFTLTISSLQPEDFATYYCLQKSSYPLTFGGGTKVEIKR
notes: IgG
As to B18, the binding result is “no binding”.

B19: IgG 2031 (antibody, name in Kabat numbering, V domains shown)
VH: QVQLVQSGAEVKKPGASVKVSCKVSGFSFPSSGVDWVRQAPGQGLEWLGVTHGSGSTHYNQKFQGRVTITKDTSKSTVYMELSSLRSEDTAVYYCASGERDEGFVYWGQGTLVTVSS
VL: DIQLTQSPSFLSASVGDRVTITCKASQNVGTAVAWYQQKPGKAPKLLIYAASTLQSGVPSRFSGSGSGTEFTLTISSLQPEDFATYYCLQKSSYPLTFGGGTKVEIKR
notes: IgG
With B19, the binding result is listed as “no binding”.

B20: IgG 2030 (antibody, name in Kabat numbering, V domains shown)
VH: QVQLVQSGAEVKKPGASVKVSCKVSGFSFPSSGVDWVRQAPGQGLEWLGVTHGSGSTHYNQKFQGRVTITKDTSKSTVYMELSSLRSEDTAVYYCASGEHDEGFVYWGQGTLVTVSS
VL: DIQLTQSPSFLSASVGDRVTITCKASQNVGTAVAWYQQKPGKAPKLLIYAASTLQSGVPSRFSGSGSGTEFTLTISSLQPEDFATYYCLQKSSYPLTFGGGTKVEIKR
notes: IgG
Regarding B20, the binding result is listed as “no binding”.

For the origin of these results see patent publication US20230406951A1 (Pfizer, published 2023).
